Measurements: US20130202646A1, “COMPOSITIONS AND METHODS FOR MODULATING AUTOPHAGY” (SAN DIEGO STATE UNIVERSITY (SDSU) FOUNDATION, priority 2010, published 2013)

B1: Atg5^K130R: dominant negative point mutant of Atg5 delivered by transient transfection in HL-1 cells (protein, UniProt Q9H1Y0 1-275, looked up, variant K130R)
Autophagy protein 5: MTDDKDVLRDVWFGRIPTCFTLYQDEITEREAEPYYLLLPRVSYLTLVTDKVKKHFQKVMRQEDISEIWFEYEGTPLKWHYPIGLLFDLLASSSALPWNITVHFKSFPEKDLLHCPSKDAIEAHFMSCMREADALKHKSQVINEMQKKDHKQLWMGLQNDRFDQFWAINRKLMEYPAEENGFRYIPFRIYQTTTERPFIQKLFRPVAADGQLHTLGDLLKEVCPSAIDPEDGEKKNQVMIHGIEPMLETPLQWLSEHLSYPDNFLHISIIPQPTD
modifications: mCherry fusion
notes: dominant negative point mutant of Atg5 delivered by transient transfection in HL-1 cells
B2: Tat-Atg5^K130R: Atg5^K130R expressed as a fusion protein with the protein transduction domain derived from HIV Tat; cell-permeable dominant negative inhibitor of autophagy (protein)
chain: MRGSHHHHHHGMASMTGGQQMGRDLYDDDDKDRWGSKLGYGRKKRRQRRRGGSTMSGYPYDVPDYAGSMAGTMTDDKDVLRDVWFGRIPTCFTLYQDEITEREAEPYYLLLPRVSYLTLVTDKVKKHFQKVMRQEDVSEIWFEYEGTPLKWHYPIGLLFDLLASSSALPWNITVHFKSFPEKDLLHCPSKDAVEAHFMSCMREADALKHKSQVINEMQKKDHKQLWMGLQNDRFDQFWAINRKLMEYPPEENGFRYIPFRIYQTTTERPFIQKLFRPVAADGQLHTLGDLLREVCPSAVAPEDGEKRSQVMIHGIEPMLETPLQWLSEHLSYPDNFLHISIVPQPTD
modifications: synthetic peptide or nucleic acid
B3: Tat-Beclin1: cell-permeable recombinant Tat fusion of rat Beclin 1; stimulant or activator of autophagy (protein)
chain: MRGSHHHHHHGMASMTGGQQMGRDLYDDDDKDRWGSKLGYGRKKRRQRRRGGSTMSGYPYDVPDYAGSMAGTGLEMEGSKASSSTMQVSFVCQRCSQPLKLDTSFKILDRVTIQELTAPLLTTAQAKPGESQEEEANSGEEPFIETRQDGVSRRFIPPARMMSTESANSFTLIGEASDGGTMENLSRRLKVTGDLFDIMSGQTDVDHPLCEECTDTLLDQLDTQLNVTENECQNYKRCLEMLEQMNEGDSEQLQRELKELALEEERLIQELEDVEKNRKVVAENLEKVQAEAERLDQEEAQYQREYSEFKRQQLELDDELKSVENQMRYAQMQLDKLKKTNVFNATFHIWHSGQFGTINNFRLGRLPSAPVEWNEINAAWGQTVLLLHALANKMGLKFQRYRLVPYGNHSYLESLTDKSKELPLYCSGGLRFFWDNKFDHAMVAFLDCVQQFKEEVEKGETRFCLPYRMDVEKGKIEDTGGSGGSYSIKTQFNSEEQWTKALKFMLTNLKWGLAWVSSQFYNK

What was measured:
[1] = system: HL-1 cells; experiment: Cell death by LDH release after simulated ischemia/reperfusion (sI/R) in HL-1 cells; assay type: cell-based, murine
Protocol: Cells of the murine atrial-derived cardiac cell line HL-1^16 were plated in gelatin/fibronectin-coated culture vessels and maintained in Claycomb medium^16 (JRH Biosciences, Lenexa, Kans.) supplemented with 10% fetal bovine serum, 0.1 mm norepinephrine, 2 mm […], 100 U·mL^-1 penicillin, 100 U·mL^-1 streptomycin, and 0.25 μg·mL^-1 amphotericin B. Cells were plated in 14-mm diameter glass bottom microwell dishes (MatTek), and ischemia was introduced by a buffer exchange to ischemia-mimetic solution (in mM: 20deoxyglucose, 125 NaCl, 8 KCl, 1.2 KH2PO4, 1.25 MgSO4, 1.2 CaCl2, 6.25 NaHCO2, 5 sodium lactate, 20 HEPES, pH 6.6) and placing the dishes in hypoxic pouches (GasPakTM EZ, BD Biosciences) equilibrated with 95% N2, 5% CO2. After 2 hr of simulated ischemia, reperfusion was initiated by a buffer exchange to normoxic MKH buffer and incubation at 95% room air, 5% CO2. […] Protein content and LDH activity were determined according to El-Ani et al.^20. Briefly, 25 μl supernatants from 35 mm dishes were transferred into wells of a 96-well plate, and the LDH activities were determined with an LDH-L kit (Sigma), according to the manufacturer. The product of the enzyme was measured spectrophotometrically at 30° C. at a wavelength of 340 nm as described previously^21. […]

[2] = system: HL-1 cells; experiment: Autophagy scored by intracellular distribution of GFP-LC3 (fluorescence microscopy) in HL-1 cells; assay type: cell-based, murine; conditions: for modulation of autophagy: HL-1 cells transfected with LC3GFP, treated with Tat protein (FIG. 18)
[3] = system: isolated perfused rat hearts; experiment: Langendorff global ischemia/reperfusion injury in isolated perfused rat hearts (CK release, TTC infarct size, hemodynamics)
[4] = system: adult rat cardiomyocytes; experiment: Autophagy (GFP-LC3 puncta) in adult rat cardiomyocytes; assay type: cell-based; conditions: Tat protein 30 min before CCPA
[5] = system: isolated perfused rat hearts; experiment: Autophagy in isolated perfused rat hearts (LC3-II/LC3-I Western blot, cadaverine dye binding); conditions: Tat protein approximately 200 nM before SUL
[6] = system: adult rat cardiomyocytes
[7] = system: HL-1 cells; experiment: Protection in cell culture by recombinant Tat-Beclin1; assay type: cell-based

| Molecule | effect on cytoprotection by CCPA (LDH release) ([1]; inhibitor plus CCPA, then sI/R (2 hr sI, 3 hr R)) | effect on cytoprotection by CCPA in the second window of protection (LDH release) ([1]; with CCPA 10 min, washout, sI/R 20-24 hr later) | autophagy ([2]; transient transfection, co-transfected with GFP-LC3 (FIG. 6)) | effect on autophagy in the second window of protection ([2]; with CCPA 10 min, washout, 20-24 hr later) | effect on protection by sulfaphenazole given at reperfusion (infarct size) ([3]; FIG. 17, 3 hearts per condition) | infarct size ([3]; absence of SUL, vehicle control 38.5%, p=NS) [%] | infarct size ([3]; pretreatment with Tat-Atg5^K130R, then SUL infusion) | effect on autophagy [4] | modulation of autophagy [2] | effect on autophagy induced by SUL (LC3-II/I ratio, cadaverine dye binding) [5] | effect on protection by CCPA (LDH release) ([6]; Tat protein 30 min before CCPA, then simulated ischemia) | LDH release under normoxic conditions ([6]; absence of CCPA, normoxia) | injury from sI/R ([6]; absence of CCPA, sI/R) | protection [7] |
| --- | --- | --- | --- | --- | --- | --- | --- | --- | --- | --- | --- | --- | --- | --- |
| B1 | eliminated the protective effects of CCPA after sI/R | abolished the cytoprotective effect of CCPA | effectively suppressed autophagy | suppressed autophagy in the second window of protection |  |  |  |  |  |  |  |  |  |  |
| B2 |  |  |  |  | protection is lost | 42.0 | 30 % of the area at risk | suppressed autophagy | inhibits autophagy | potently suppressed autophagy induced by SUL | eliminated the protection by CCPA | did not increase LDH release | nor did it exacerbate injury from sI/R |  |
| B3 |  |  |  |  |  |  |  |  | stimulates autophagy |  |  |  |  | protection in cell culture |
